Patent US10941182 (Amgen, dated 2021)
Starred links: 1 amine or outer side, 2 acyl side, 3 side chain; linkers in the order of their positions; H or OH if unused. Non-standard residues stand in square brackets, D forms with d. *: point of attachment. Oic = O=C(O)[C@@H]1C[C@@H]2CCCC[C@@H]2N1; Phe(4-Cl) = N[C@@H](Cc1ccc(Cl)cc1)C(=O)O; γGlu = O=C(O)[C@H](CCC(=O)[*:2])N[*:1]; 2Nal = N[C@@H](Cc1ccc2ccccc2c1)C(=O)O; NMehArg = CN[C@@H](CCCCNC(=N)N)C(=O)O; NMeR = CN[C@@H](CCCNC(=N)N)C(=O)O; Tridecanoyl = CCCCCCCCCCCCC(=O)*; hArg = N=C(N)NCCCC[C@H](N)C(=O)O; Cha = N[C@@H](CC1CCCCC1)C(=O)O; Nle = CCCC[C@H](N)C(=O)O; AEEA = NCCOCCOCC(=O)O; Aib = CC(C)(N)C(=O)O

T1: human APJ receptor (human, UniProt P35414 1-380)
T1 sequence (looked up): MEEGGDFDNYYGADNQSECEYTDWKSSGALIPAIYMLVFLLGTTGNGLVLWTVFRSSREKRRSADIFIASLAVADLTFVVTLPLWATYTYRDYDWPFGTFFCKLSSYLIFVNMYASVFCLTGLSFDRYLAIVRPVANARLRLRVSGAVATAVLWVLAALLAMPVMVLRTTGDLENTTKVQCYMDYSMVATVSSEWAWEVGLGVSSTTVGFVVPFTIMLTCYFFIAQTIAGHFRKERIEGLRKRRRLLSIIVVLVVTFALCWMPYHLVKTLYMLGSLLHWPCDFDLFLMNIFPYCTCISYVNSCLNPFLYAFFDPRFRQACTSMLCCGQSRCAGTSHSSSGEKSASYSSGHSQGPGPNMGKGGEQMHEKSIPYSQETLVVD

T2: rat APJ receptor (rat, UniProt Q9JHG3 1-377)
T2 sequence (looked up): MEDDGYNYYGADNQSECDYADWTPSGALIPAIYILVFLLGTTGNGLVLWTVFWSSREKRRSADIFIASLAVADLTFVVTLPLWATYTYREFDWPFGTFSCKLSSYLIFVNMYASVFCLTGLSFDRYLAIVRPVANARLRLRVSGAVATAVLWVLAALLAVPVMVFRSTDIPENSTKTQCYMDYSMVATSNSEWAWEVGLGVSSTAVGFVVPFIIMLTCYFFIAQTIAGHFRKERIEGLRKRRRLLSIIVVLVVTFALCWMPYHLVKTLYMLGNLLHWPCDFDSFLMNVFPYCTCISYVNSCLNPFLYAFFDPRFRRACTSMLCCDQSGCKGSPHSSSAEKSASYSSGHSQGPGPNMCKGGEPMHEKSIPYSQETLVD


Experiments:
human APJ receptor = biological target: T1, human APJ receptor; test: cell-based or functional assay
rat APJ receptor = biological target: T2, rat APJ receptor; test: cell-based or functional assay

| Binder | EC50 Human APJ Receptor (GTPγS assay) (human APJ receptor) | EC50 Rat APJ Receptor (GTPγS assay) (rat APJ receptor) |
| --- | --- | --- |
| Tridecanoyl-[γGlu][AEEA][AEEA]QRPQLSHKGP[Nle]P[Phe(4-Cl)]-OH (SMILES CCCCCCCCCCCCC(=O)N[C@@H](CCC(=O)NCCOCCOCC(=O)NCCOCCOCC(=O)N[C@@H](CCC(N)=O)C(=O)N[C@@H](CCCNC(=N)N)C(=O)N1CCC[C@H]1C(=O)N[C@@H](CCC(N)=O)C(=O)N[C@@H](CC(C)C)C(=O)N[C@@H](CO)C(=O)N[C@@H](Cc1c[nH]cn1)C(=O)N[C@@H](CCCCN)C(=O)NCC(=O)N1CCC[C@H]1C(=O)N[C@@H](CCCC)C(=O)N1CCC[C@H]1C(=O)N[C@@H](Cc1ccc(Cl)cc1)C(=O)O)C(=O)O) [Apelin polypeptide SEQ ID NO: 465] | 0.0692 nM | 0.175 nM |
| Tridecanoyl-[γGlu][AEEA][AEEA][dR]Q[hArg]P[hArg][Cha]SHKG[Oic][Nle]P[Phe(4-Cl)]-OH (SMILES CCCCCCCCCCCCC(=O)N[C@@H](CCC(=O)NCCOCCOCC(=O)NCCOCCOCC(=O)N[C@H](CCCNC(=N)N)C(=O)N[C@@H](CCC(N)=O)C(=O)N[C@@H](CCCCNC(=N)N)C(=O)N1CCC[C@H]1C(=O)N[C@@H](CCCCNC(=N)N)C(=O)N[C@@H](CC1CCCCC1)C(=O)N[C@@H](CO)C(=O)N[C@@H](Cc1c[nH]cn1)C(=O)N[C@@H](CCCCN)C(=O)NCC(=O)N1[C@H](C(=O)N[C@@H](CCCC)C(=O)N2CCC[C@H]2C(=O)N[C@@H](Cc2ccc(Cl)cc2)C(=O)O)C[C@@H]2CCCC[C@@H]21)C(=O)O) [Apelin polypeptide SEQ ID NO: 480] | 0.0998 nM | 0.271 nM |
| Tridecanoyl-[γGlu][AEEA][AEEA]QRPPLSHKGP[Nle]P[Phe(4-Cl)]-OH (SMILES CCCCCCCCCCCCC(=O)N[C@@H](CCC(=O)NCCOCCOCC(=O)NCCOCCOCC(=O)N[C@@H](CCC(N)=O)C(=O)N[C@@H](CCCNC(=N)N)C(=O)N1CCC[C@H]1C(=O)N1CCC[C@H]1C(=O)N[C@@H](CC(C)C)C(=O)N[C@@H](CO)C(=O)N[C@@H](Cc1c[nH]cn1)C(=O)N[C@@H](CCCCN)C(=O)NCC(=O)N1CCC[C@H]1C(=O)N[C@@H](CCCC)C(=O)N1CCC[C@H]1C(=O)N[C@@H](Cc1ccc(Cl)cc1)C(=O)O)C(=O)O) [Apelin polypeptide SEQ ID NO: 427] | 0.17 nM | 0.313 nM |
| Tridecanoyl-[γGlu][AEEA][AEEA][dQ]RPE[Cha]SHKG[Oic][Nle][Aib][Phe(4-Cl)]-OH (SMILES CCCCCCCCCCCCC(=O)N[C@@H](CCC(=O)NCCOCCOCC(=O)NCCOCCOCC(=O)N[C@H](CCC(N)=O)C(=O)N[C@@H](CCCNC(=N)N)C(=O)N1CCC[C@H]1C(=O)N[C@@H](CCC(=O)O)C(=O)N[C@@H](CC1CCCCC1)C(=O)N[C@@H](CO)C(=O)N[C@@H](Cc1c[nH]cn1)C(=O)N[C@@H](CCCCN)C(=O)NCC(=O)N1[C@H](C(=O)N[C@@H](CCCC)C(=O)NC(C)(C)C(=O)N[C@@H](Cc2ccc(Cl)cc2)C(=O)O)C[C@@H]2CCCC[C@@H]21)C(=O)O) [Apelin polypeptide SEQ ID NO: 526] | 2.02 nM | 7.2 nM |
| Tridecanoyl-[γGlu][AEEA][AEEA]RQ[Nle]P[hArg][Cha]AAKG[Oic][Nle]P[Phe(4-Cl)]-OH (SMILES CCCCCCCCCCCCC(=O)N[C@@H](CCC(=O)NCCOCCOCC(=O)NCCOCCOCC(=O)N[C@@H](CCCNC(=N)N)C(=O)N[C@@H](CCC(N)=O)C(=O)N[C@@H](CCCC)C(=O)N1CCC[C@H]1C(=O)N[C@@H](CCCCNC(=N)N)C(=O)N[C@@H](CC1CCCCC1)C(=O)N[C@@H](C)C(=O)N[C@@H](C)C(=O)N[C@@H](CCCCN)C(=O)NCC(=O)N1[C@H](C(=O)N[C@@H](CCCC)C(=O)N2CCC[C@H]2C(=O)N[C@@H](Cc2ccc(Cl)cc2)C(=O)O)C[C@@H]2CCCC[C@@H]21)C(=O)O) [Apelin polypeptide SEQ ID NO: 348] | 4.92 nM | 7.46 nM |

Other lines, results leading:

| EC50 Human APJ Receptor (GTPγS assay) (human APJ receptor) | EC50 Rat APJ Receptor (GTPγS assay) (rat APJ receptor) | Binder |
| --- | --- | --- |
| 0.461 nM | 1.15 nM | Tridecanoyl-[γGlu][AEEA][AEEA]Q[dR]P[NMehArg][Cha]SHKGP[Nle]P[Phe(4-Cl)]-OH (SMILES CCCCCCCCCCCCC(=O)N[C@@H](CCC(=O)NCCOCCOCC(=O)NCCOCCOCC(=O)N[C@@H](CCC(N)=O)C(=O)N[C@H](CCCNC(=N)N)C(=O)N1CCC[C@H]1C(=O)N(C)[C@@H](CCCCNC(=N)N)C(=O)N[C@@H](CC1CCCCC1)C(=O)N[C@@H](CO)C(=O)N[C@@H](Cc1c[nH]cn1)C(=O)N[C@@H](CCCCN)C(=O)NCC(=O)N1CCC[C@H]1C(=O)N[C@@H](CCCC)C(=O)N1CCC[C@H]1C(=O)N[C@@H](Cc1ccc(Cl)cc1)C(=O)O)C(=O)O) [Apelin polypeptide SEQ ID NO: 435] |
| 0.423 nM | 0.691 nM | Tridecanoyl-[γGlu][AEEA][AEEA]QRPELSHKGP[Nle]P[Phe(4-Cl)]-OH (SMILES CCCCCCCCCCCCC(=O)N[C@@H](CCC(=O)NCCOCCOCC(=O)NCCOCCOCC(=O)N[C@@H](CCC(N)=O)C(=O)N[C@@H](CCCNC(=N)N)C(=O)N1CCC[C@H]1C(=O)N[C@@H](CCC(=O)O)C(=O)N[C@@H](CC(C)C)C(=O)N[C@@H](CO)C(=O)N[C@@H](Cc1c[nH]cn1)C(=O)N[C@@H](CCCCN)C(=O)NCC(=O)N1CCC[C@H]1C(=O)N[C@@H](CCCC)C(=O)N1CCC[C@H]1C(=O)N[C@@H](Cc1ccc(Cl)cc1)C(=O)O)C(=O)O) [Apelin polypeptide SEQ ID NO: 477] |
| 0.0379 nM | 0.149 nM | Tridecanoyl-[γGlu][AEEA][AEEA]QRP[NMeR]LSHKGP[Nle]P[2Nal]-OH (SMILES CCCCCCCCCCCCC(=O)N[C@@H](CCC(=O)NCCOCCOCC(=O)NCCOCCOCC(=O)N[C@@H](CCC(N)=O)C(=O)N[C@@H](CCCNC(=N)N)C(=O)N1CCC[C@H]1C(=O)N(C)[C@@H](CCCNC(=N)N)C(=O)N[C@@H](CC(C)C)C(=O)N[C@@H](CO)C(=O)N[C@@H](Cc1c[nH]cn1)C(=O)N[C@@H](CCCCN)C(=O)NCC(=O)N1CCC[C@H]1C(=O)N[C@@H](CCCC)C(=O)N1CCC[C@H]1C(=O)N[C@@H](Cc1ccc2ccccc2c1)C(=O)O)C(=O)O) [Apelin polypeptide SEQ ID NO: 470] |
| 108 nM | 227 nM | Tridecanoyl-[γGlu][AEEA][AEEA][dQ]RP[dE][Cha]SHKG[Oic][Nle][Aib][Phe(4-Cl)]-OH (SMILES CCCCCCCCCCCCC(=O)N[C@@H](CCC(=O)NCCOCCOCC(=O)NCCOCCOCC(=O)N[C@H](CCC(N)=O)C(=O)N[C@@H](CCCNC(=N)N)C(=O)N1CCC[C@H]1C(=O)N[C@H](CCC(=O)O)C(=O)N[C@@H](CC1CCCCC1)C(=O)N[C@@H](CO)C(=O)N[C@@H](Cc1c[nH]cn1)C(=O)N[C@@H](CCCCN)C(=O)NCC(=O)N1[C@H](C(=O)N[C@@H](CCCC)C(=O)NC(C)(C)C(=O)N[C@@H](Cc2ccc(Cl)cc2)C(=O)O)C[C@@H]2CCCC[C@@H]21)C(=O)O) [Apelin polypeptide SEQ ID NO: 527] |
| 0.409 nM | 0.805 nM | Tridecanoyl-[γGlu][AEEA][AEEA][dR]Q[hArg]P[NMeR][Cha]SHKG[Oic][Nle]P[Phe(4-Cl)]-OH (SMILES CCCCCCCCCCCCC(=O)N[C@@H](CCC(=O)NCCOCCOCC(=O)NCCOCCOCC(=O)N[C@H](CCCNC(=N)N)C(=O)N[C@@H](CCC(N)=O)C(=O)N[C@@H](CCCCNC(=N)N)C(=O)N1CCC[C@H]1C(=O)N(C)[C@@H](CCCNC(=N)N)C(=O)N[C@@H](CC1CCCCC1)C(=O)N[C@@H](CO)C(=O)N[C@@H](Cc1c[nH]cn1)C(=O)N[C@@H](CCCCN)C(=O)NCC(=O)N1[C@H](C(=O)N[C@@H](CCCC)C(=O)N2CCC[C@H]2C(=O)N[C@@H](Cc2ccc(Cl)cc2)C(=O)O)C[C@@H]2CCCC[C@@H]21)C(=O)O) [Apelin polypeptide SEQ ID NO: 479] |
| 1.22 nM | 2.83 nM | Tridecanoyl-[γGlu][AEEA][AEEA]Q[dR]P[dR][Cha]SHKG[Oic][Nle]P[Phe(4-Cl)]-OH (SMILES CCCCCCCCCCCCC(=O)N[C@@H](CCC(=O)NCCOCCOCC(=O)NCCOCCOCC(=O)N[C@@H](CCC(N)=O)C(=O)N[C@H](CCCNC(=N)N)C(=O)N1CCC[C@H]1C(=O)N[C@H](CCCNC(=N)N)C(=O)N[C@@H](CC1CCCCC1)C(=O)N[C@@H](CO)C(=O)N[C@@H](Cc1c[nH]cn1)C(=O)N[C@@H](CCCCN)C(=O)NCC(=O)N1[C@H](C(=O)N[C@@H](CCCC)C(=O)N2CCC[C@H]2C(=O)N[C@@H](Cc2ccc(Cl)cc2)C(=O)O)C[C@@H]2CCCC[C@@H]21)C(=O)O) [Apelin polypeptide SEQ ID NO: 430] |
| 0.957 nM | 4.35 nM | XXXQRPRLSHKGPXPF ({TDA}[AC4Abu][Aeea][Aeea]QrP[NMehArg][BLeu]SHKGP[Nle]P[4-Cl-F]{COOH}) [Apelin polypeptide SEQ ID NO: 384] |
